According to article PMC4390438:

Target: T1, dopamine D2 receptor (mouse (endogenous in C57BL/6 brain slices)), P61168
T1 chain: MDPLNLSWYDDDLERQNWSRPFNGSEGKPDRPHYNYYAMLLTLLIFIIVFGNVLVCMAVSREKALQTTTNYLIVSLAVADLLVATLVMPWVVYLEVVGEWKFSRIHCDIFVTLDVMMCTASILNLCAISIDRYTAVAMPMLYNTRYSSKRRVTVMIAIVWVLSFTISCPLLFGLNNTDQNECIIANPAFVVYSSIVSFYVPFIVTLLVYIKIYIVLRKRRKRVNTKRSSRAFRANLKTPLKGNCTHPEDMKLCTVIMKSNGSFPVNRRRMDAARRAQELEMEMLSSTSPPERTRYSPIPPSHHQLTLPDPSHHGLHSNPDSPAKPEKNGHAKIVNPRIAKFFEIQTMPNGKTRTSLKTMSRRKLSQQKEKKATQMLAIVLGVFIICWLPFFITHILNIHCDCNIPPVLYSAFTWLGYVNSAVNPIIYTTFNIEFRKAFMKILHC
Assay: proximity ligation
Conditions: remark: other sources report otherwise

PLA dots per µm^2: 0.283 dots/µm^2
B1: dopamine D1 receptor, Q61616 1-446 (receptor)
chain: MAPNTSTMDETGLPVERDFSFRILTACFLSLLILSTLLGNTLVCAAVIRFRHLRSKVTNFFVISLAVSDLLVAVLVMPWKAVAEIAGFWPFGSFCNIWVAFDIMCSTASILNLCVISVDRYWAISSPFQYERKMTPKAAFILISVAWTLSVLISFIPVQLSWHKAKPTWPLDGNFTSLEDAEDDNCDTRLSRTYAISSSLISFYIPVAIMIVTYTSIYRIAQKQIRRISALERAAVHAKNCQTTTGNGNPVECSQSESSFKMSFKRETKVLKTLSVIMGVFVCCWLPFFISNCMVPFCGSEETQPFCIDSITFDVFVWFGWANSSLNPIIYAFNADFQKAFSTLLGCYRLCPTTNNAIETVSINNNGAVMFSSHHEPRGSISKDCNLVYLIPHAVGSSEDLKREEAGGIPKPLEKLSPALSVILDYDTDVSLEKIQPVTHSGQHST
